Experiment [1] has as its target TGF-β2 (Homo sapiens) (UniProt P61812). Conditions: cited from earlier work.
For experiment [2], the target named is TGF-β1 (Homo sapiens) (UniProt P01137). The note with it: cited from earlier work.
For experiment [3], the target named is TNF-α (Homo sapiens) (UniProt P01375). Conditions: cited from earlier work.
Experiment [4] shares this target. Conditions: cited from earlier work. The source holds these as a separate data set.
In experiment [5] the target is TGF-β1 (Homo sapiens) (UniProt P01137). Conditions: cited from earlier work. The source holds these as a separate data set.
The target in experiment [6] is TGF-β2 (Homo sapiens) (UniProt P61812). The note with it: cited from earlier work. The source holds these as a separate data set.
Experiment [7] has as its target lipoprotein receptors (on SH-SY5Y cells) (human (endogenous in SH-SY5Y)). Briefly: flow cytometry on cells; SH-SY5Y cells detached with EDTA, in Hank's binding buffer, steps of 30 min at 4°C: RAP (8 μM) or buffer alone, then α2M (100 nM), rabbit anti-α2M, anti-rabbit IgG-FITC; viable cells gated by propidium iodide; α2M preparations stored at 4°C or -20°C for 10 days.

In general, Kd refers to the equilibrium constant for the complex coming apart.

Read-outs that look alike come from different tables or passages of the source. A value given as a limit tells only on which side of the number the result lay.

Chain of glutathione-S-transferase-RAP (receptor-associated protein) (P30533 35-357): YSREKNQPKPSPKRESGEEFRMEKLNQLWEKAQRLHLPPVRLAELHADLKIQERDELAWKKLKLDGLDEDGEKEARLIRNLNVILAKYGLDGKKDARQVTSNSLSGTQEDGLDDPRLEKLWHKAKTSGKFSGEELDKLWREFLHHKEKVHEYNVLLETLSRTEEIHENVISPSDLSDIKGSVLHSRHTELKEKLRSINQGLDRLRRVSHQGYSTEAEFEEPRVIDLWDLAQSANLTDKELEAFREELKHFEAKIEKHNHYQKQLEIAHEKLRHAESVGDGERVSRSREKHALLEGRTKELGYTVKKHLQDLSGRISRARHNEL
Chain of alpha-2-macroglobulin (native) (P01023 24-1474): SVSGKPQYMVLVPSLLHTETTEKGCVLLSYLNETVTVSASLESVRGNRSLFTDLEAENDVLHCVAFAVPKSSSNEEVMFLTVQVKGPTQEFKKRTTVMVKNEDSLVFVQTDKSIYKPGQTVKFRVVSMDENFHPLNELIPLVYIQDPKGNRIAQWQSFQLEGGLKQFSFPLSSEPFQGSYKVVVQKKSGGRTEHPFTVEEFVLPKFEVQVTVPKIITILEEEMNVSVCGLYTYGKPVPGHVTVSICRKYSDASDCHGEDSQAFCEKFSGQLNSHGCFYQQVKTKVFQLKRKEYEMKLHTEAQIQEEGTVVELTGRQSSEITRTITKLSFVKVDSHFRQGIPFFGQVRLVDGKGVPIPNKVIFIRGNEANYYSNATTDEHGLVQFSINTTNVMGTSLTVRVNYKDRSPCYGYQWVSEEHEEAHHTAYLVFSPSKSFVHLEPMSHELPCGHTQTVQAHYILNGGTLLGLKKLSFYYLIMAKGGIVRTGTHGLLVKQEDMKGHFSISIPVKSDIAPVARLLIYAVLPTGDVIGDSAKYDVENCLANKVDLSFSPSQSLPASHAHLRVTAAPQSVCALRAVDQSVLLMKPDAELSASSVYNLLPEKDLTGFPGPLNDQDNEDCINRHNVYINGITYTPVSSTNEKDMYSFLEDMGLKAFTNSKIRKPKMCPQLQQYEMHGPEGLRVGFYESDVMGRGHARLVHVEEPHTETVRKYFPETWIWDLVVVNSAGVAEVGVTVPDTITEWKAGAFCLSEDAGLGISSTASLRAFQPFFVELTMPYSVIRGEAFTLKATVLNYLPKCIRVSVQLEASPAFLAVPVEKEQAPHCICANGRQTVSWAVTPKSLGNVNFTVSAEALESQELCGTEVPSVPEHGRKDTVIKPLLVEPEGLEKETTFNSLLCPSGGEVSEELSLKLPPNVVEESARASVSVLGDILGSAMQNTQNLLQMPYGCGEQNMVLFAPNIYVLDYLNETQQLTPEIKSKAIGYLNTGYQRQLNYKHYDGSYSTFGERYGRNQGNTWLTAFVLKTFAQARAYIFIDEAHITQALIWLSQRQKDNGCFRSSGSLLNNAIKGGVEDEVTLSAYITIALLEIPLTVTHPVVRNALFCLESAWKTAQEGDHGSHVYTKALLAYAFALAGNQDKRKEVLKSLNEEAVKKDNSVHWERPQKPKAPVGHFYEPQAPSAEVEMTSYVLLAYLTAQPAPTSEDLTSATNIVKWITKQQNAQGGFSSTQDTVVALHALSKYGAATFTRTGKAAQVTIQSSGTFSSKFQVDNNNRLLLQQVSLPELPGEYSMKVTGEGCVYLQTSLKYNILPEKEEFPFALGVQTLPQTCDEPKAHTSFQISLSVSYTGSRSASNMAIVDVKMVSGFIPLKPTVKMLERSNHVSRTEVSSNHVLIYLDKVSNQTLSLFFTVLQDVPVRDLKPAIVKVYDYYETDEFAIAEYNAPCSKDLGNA
Chain of alpha-2-macroglobulin (transformed, α2M*) (P01023 24-1474): as above
Chain of TNF-α (Homo sapiens) (P01375 77-233): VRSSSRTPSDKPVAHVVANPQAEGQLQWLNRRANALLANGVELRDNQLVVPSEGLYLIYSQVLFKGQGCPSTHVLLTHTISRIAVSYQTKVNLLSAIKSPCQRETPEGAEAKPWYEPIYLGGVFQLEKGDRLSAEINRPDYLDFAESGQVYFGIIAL
Chain of TGF-β1 (Homo sapiens) (P01137 279-390): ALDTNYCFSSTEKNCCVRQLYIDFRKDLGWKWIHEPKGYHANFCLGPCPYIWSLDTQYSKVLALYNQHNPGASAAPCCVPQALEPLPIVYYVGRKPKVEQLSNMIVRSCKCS
Chain of TGF-β2 (Homo sapiens) (P61812 303-414): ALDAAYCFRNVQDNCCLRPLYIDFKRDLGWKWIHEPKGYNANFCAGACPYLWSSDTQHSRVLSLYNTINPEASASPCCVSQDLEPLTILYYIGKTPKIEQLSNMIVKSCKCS

For the substance “alpha-2-macroglobulin (transformed, α2M*) (from UniProt P01023)”, the Kd with TGF-β2 (Homo sapiens) [1] was 0.013 µM; in the experiment with TGF-β1 (Homo sapiens) [2] it was 0.08 µM; with TNF-α (Homo sapiens) [3] it was greater than 0.75 µM.
Take “alpha-2-macroglobulin (native) (from UniProt P01023)”: the Kd with TNF-α (Homo sapiens) [4] was greater than 1.27 µM; in the experiment with TGF-β1 (Homo sapiens) [5], 0.33 µM; with TGF-β2 (Homo sapiens) [6], 0.011 µM.
In experiment [7], “glutathione-S-transferase-RAP (receptor-associated protein) (from UniProt P30533 35-357) (natural protein)” yielded a percent of the cell surface binding of the frozen α2M preparations inhibited by RAP of 20 to 50% and a percent of the cell surface binding of α2M inhibited by RAP (α2M in PBS/Az at -20°C; α2M in phosphate buffer with 100 mM NaCl at -20°C after rapid freezing) of 20%.

The record behind these values is publication PMC4477937.
